Test results as given in PMC10200060, “Inhibition of DAMP actions in the tumoral microenvironment using lactoferrin-glycyrrhizin conjugate for glioblastoma therapy” (Biomaterials Research, 2023).

Key:
[1] = mouse, in vivo, iv
[2] = tested on: orthotopic GBM (U87MG) mice model; experiment: Survival in orthotopic GBM mouse model; format: in vivo, Balb/c nude mice; settings: i.v. GL equivalent 50 mg kg^−1 (Lf 5 mg kg^−1)
Method: To establish the orthotopic GBM mice model, GBM cells (U87MG, inoculation density: 1.0 × 10^6 cells per 10 μL) were stereotactically injected into the right striatum of Balb/c nude mice. Then, mice were randomly divided into four groups (n = 5): control, GL, Lf, and Lf-GL treated group. […] After four weeks, mice were sacrificed, and organs were harvested and fixed with 4% paraformaldehyde for further analysis.

[3] = tested on: U87MG human glioma cell line; experiment: Cell viability test (CCK-8) in U87MG; format: cell-based; settings: 50 μM GL equivalent
Method: Cell viability was determined using a cell counting kit-8 (CCK-8). U87MG and HUVECs (seeding density: 0.75 × 10^4 cells per well) in 96-well culture plates were treated with GL, Lf, or Lf-GL (25 to 200 × 10^–6 M of GL equivalent concentration) and were incubated for different periods of time (24, 48, and 72 h). After washing with PBS, they were treated with a cell culture medium containing a CCK-8 assay kit (Abbkine) and were incubated at 37 °C and 5% CO2 for 2 h. Then, absorbance was measured at 450 nm in a micro-plate reader (VLBL00D0, Thermo Fisher Scientific). Results were quantified using Sigma Plot (Systat Software, USA). To determine the effect of extracellular HMGB1 in GBM and endothelial cell proliferation, U87MG and HUVECs were seeded in 96-well culture plates (seeding density: 0.75 × 10^4 cells per well) and GL, Lf, or Lf-GL (50 × 10^–6 M GL equivalent concentration) were added to cells with or without HMGB1 protein (U87MG: 0.1 μg mL^−1, and HUVEC: 1 μg mL^−1). Cells were incubated for different periods of time (24, 48, and 72 h).

[4] = tested on: orthotopic GBM (U87MG) mice model; experiment: TUNEL assay of GBM tissue; format: in vivo, Balb/c nude mice; settings: daily i.v., 14 days (control 28.5 ± 4.8)
Description: (§1) After two weeks, mice were sacrificed, and the brains were harvested and fixed with paraformaldehyde (4%). Then, tissue processing was automatically conducted using a Leica TP1020 semi-enclosed Benchtop Tissue Processor (Leica Biosystems, Wetzlar, Hesse, Germany), followed by embedding in paraffin blocks. Paraffin blocks were sliced into 5 μm thick slices using a Leica RM2145 Microtome (Leica Biosystems). Nissl staining was used to stain brain tissue slides with pre-warmed 0.1% Cresyl Violet Stain Solution (Abcam). TUNEL assays were conducted following the manufacturer’s instructions. For immunofluorescence staining; anti-HMGB1 antibody (Abcam), anti-Ki67 antibody (Abcam), anti-CD31 antibody (Abcam), and anti-VEGF antibody (Abcam) were used as primary antibodies, and goat anti-rabbit IgG-H&L Alexa Fluor 488 and goat anti-rabbit IgG H&L Alexa Fluor 647 were used as secondary antibodies, followed by DAPI mounting.

CD31 = experiment: Immunofluorescence staining of CD31 in GBM tissue; format: in vivo, Balb/c nude mice; settings: GBM mice, daily i.v., 14 days (control MFI 14.7 ± 1.4)
Description: as §1

U87MG spheroid = experiment: GBM spheroid growth inhibition; format: cell-based, human; settings: GL equivalent 50 µM, day 6 (control 294%)
Method: Fig. S8. GBM spheroid growth inhibition of Lf-GL. To form U87MG spheroid, cells were seeded at density of 1X10^5 cells in concave mold (StemFIT 3D; MICROFIT, Korea). After spheroids were formed, they were transferred to 24-well plate coated with 2% agarose gel. The constructed spheroids were treated with conditioned medium at 2 days interval after a washing step with PBS. (a) Morphology of U87MG spheroid treated with Lf-GL of GL equivalent concentration of 50 µM on day 0, 2, 4 and 6, respectively. Scale bar: 200 µm (b) GBM spheroids time-related volume after treated with Lf-GL of GL equivalent concentration of 50 µM. Data were expressed as mean ± S.E.M (n=9). **P <0.01 versus Control.

U87MG = experiment: Annexin V/PI apoptosis staining in U87MG; format: cell-based, human; settings: GL equivalent 50 µM, 24 h (control 1.40%)
Method: Fig. S10. Non-apoptotic U87MG growth inhibition of Lf-GL. Annexin V-DY-634 / PI apoptosis staining to detect the apoptosis and necrosis in the Control, GL, Lf, and Lf-GL treated group at all GL equivalent concentration of 50 µM for 24 h. However, the cell population of annexin V (+)/PI (+) in the Lf-GL treatment group was 0.28%, which was even lower level to 1.40% in the Control group

HMGB1 = HMGB1 ELISA of U87MG culture medium; format: cell-based, human; settings: 50 μM GL equivalent, 48 h (control 131.8 ± 11.4)
Method: U87MG cells were seeded in 100 mm-cell culture dishes (2.2 × 10^6 cells per dish) and treated with GL, Lf, or Lf-GL (50 × 10^–6 M GL equivalent concentration) for 48 h. After incubating, cells were collected using a cell scrapper and were centrifuged for 3 min at 150 × g. Supernatant was collected as cell culture medium, and pellets were washed with cold PBS twice and transferred into a microcentrifuge tube. Tubes were centrifuged, and then pellets were resuspended in 500 μL 1X hypotonic buffer and incubated on ice. Then, 25 μL of NP40 was added and the mixture was agitated using a vortex mixer at the highest setting. Homogenates were centrifuged for 10 min at 842 × g at 4℃. Supernatant was collected as the cytoplasmic fraction, and pellets were resuspended in cell extraction buffer (50 μL) and were incubated for 30 min on ice with vortexing at 10 min intervals. Then, homogenates were centrifuged for 30 min at 14,000 × g at 4℃. Supernatant was collected as the nuclear fraction. The amount of HMGB1 in the samples was measured using a HMGB1 ELISA kit (Abbkine), and absorbance was measured at 450 nm in a micro-plate reader. A DNA assay (Quant-iT™ dsDNA Assay Kit, Invitrogen) was also conducted to express HMGB1 concentrations in equivalent amounts of DNA.

B1: Lf-GL: lactoferrin-glycyrrhizin conjugate with ligation ratio Lf:GL 1:10, used in further experiments (conjugate, UniProt P24627 20-708, looked up)
Lactotransferrin: APRKNVRWCTISQPEWFKCRRWQWRMKKLGAPSITCVRRAFALECIRAIAEKKADAVTLDGGMVFEAGRDPYKLRPVAAEIYGTKESPQTHYYAVAVVKKGSNFQLDQLQGRKSCHTGLGRSAGWIIPMGILRPYLSWTESLEPLQGAVAKFFSASCVPCIDRQAYPNLCQLCKGEGENQCACSSREPYFGYSGAFKCLQDGAGDVAFVKETTVFENLPEKADRDQYELLCLNNSRAPVDAFKECHLAQVPSHAVVARSVDGKEDLIWKLLSKAQEKFGKNKSRSFQLFGSPPGQRDLLFKDSALGFLRIPSKVDSALYLGSRYLTTLKNLRETAEEVKARYTRVVWCAVGPEEQKKCQQWSQQSGQNVTCATASTTDDCIVLVLKGEADALNLDGGYIYTAGKCGLVPVLAENRKSSKHSSLDCVLRPTEGYLAVAVVKKANEGLTWNSLKDKKSCHTAVDRTAGWNIPMGLIVNQTGSCAFDEFFSQSCAPGADPKSRLCALCAGDDQGLDKCVPNSKEKYYGYTGAFRCLAEDVGDVAFVKNDTVWENTNGESTADWAKNLNREDFRLLCLDGTRKPVTEAQSCHLAVAPNHAVVSRSDRAAHVKQVLLHQQALFGKNGKNCPDKFCLFKSETKNLLFNDNTECLAKLGGRPTYEEYLGTEYVTAIANLKKCSTSPLLEACAFLTR
modifications: glycyrrhizin conjugate
Time after administration until cleared from / remaining in circulation [1]: 720 min | T1/2, elimination half-life ([1]; 50 mg/kg): 5.3 ± 0.4 min | Mice survived up to 28 days [2]: 87.5% | Additional days of survival versus PBS control ([2]; 28 days): 5 days | Growth rate ([3]; 72 h): 68.7 ± 15.9% | Number of cells, % of the original count ([3]; after 48 h treatment): 44.1 ± 6.3% | TUNEL MFI [4]: 9.1 ± 0.9 | Decrease of MFI of CD31 (CD31): sevenfold | Spheroid volume increase at day 6 compared to day 0 (U87MG spheroid): 156% | Annexin V (+)/PI (+) cell population (U87MG): 0.28% | HMGB1 released into the medium of U87MG cells (HMGB1): 74.0 ± 0.9 ng/mL
